9 molecules from patent EP1674575A2 (LA JOLLA INSTITUTE FOR ALLERGY AND IMMUNOLOGY, dated 2006) can be followed below.

Where a chain is given by its changes, count along the chain named.

T1: LTα homotrimer (UniProt P01374 35-205)
T1 construct: also called recombinant LTα; secreted LTα
T1 sequence (looked up): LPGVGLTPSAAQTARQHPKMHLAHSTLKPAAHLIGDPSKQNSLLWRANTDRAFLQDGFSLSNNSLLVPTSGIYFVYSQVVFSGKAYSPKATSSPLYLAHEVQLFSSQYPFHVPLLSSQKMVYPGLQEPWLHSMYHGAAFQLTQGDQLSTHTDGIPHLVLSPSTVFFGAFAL

T2: LTαTyr108Phe (UniProt P01374 35-205)
T2 construct: also called LTαY108F; Y108F
T2 sequence (looked up): T1 sequence (looked up) with Y108F

T3: LTα1β2 complex (LTβ 33 kDa and LTα 23-25 kDa) from detergent extracts of PMA activated II-23.D7 cells (human, UniProt P01374 35-205; Q06643 1-244)
T3 construct: Endogenous membrane complex, precipitated from detergent extracts; also called LTβ and LTα complex
T3 sequence (looked up) 1: T1 sequence (looked up)
T3 sequence (looked up) 2: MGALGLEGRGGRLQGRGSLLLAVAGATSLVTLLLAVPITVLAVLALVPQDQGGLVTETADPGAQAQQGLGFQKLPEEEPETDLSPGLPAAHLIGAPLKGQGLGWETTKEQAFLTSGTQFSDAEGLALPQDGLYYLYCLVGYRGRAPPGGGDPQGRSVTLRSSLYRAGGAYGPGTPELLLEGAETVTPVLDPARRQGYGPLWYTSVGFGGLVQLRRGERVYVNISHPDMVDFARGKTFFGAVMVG

B1: Fas:Fc (Fc fusion, UniProt P25445 26-173, looked up)
chain: QVTDINSKGLELRKTVTTVETQNLEGLHHDGQFCHKPCPPGERKARDCTVNGDEPDCVPCQEGKEYTDKAHFSSKCRRCRLCDEGHGLEVEINCTRTQNTKCRCKPNFFCNSTVCEHCDPCTKCEHGIIKECTLTSNTKCKEEGSRSN
notes: not shown: Fc region of human IgG1
B2: TNFR60:Fc (Fc fusion, UniProt P19438 30-211, looked up)
chain: LVPHLGDREKRDSVCPQGKYIHPQNNSICCTKCHKGTYLYNDCPGPGQDTDCRECESGSFTASENHLRHCLSCSKCRKEMGQVEISSCTVDRDTVCGCRKNQYRHYWSENLFQCFNCSLCLNGTVHLSCQEKQNTVCTCHAGFFLRENECVSCSNCKKSLECTKLCLPQIENVKGTEDSGTT
notes: also called TNFR:Fc; soluble type I TNFR protein (TNFR:Fc); not shown: Fc region of human IgG1
B3: HVEM:Fc (extracellular region of HVEM, 1 to K184, fused to the Fc region of human IgG1) (Fc fusion, UniProt Q92956 39-184, looked up)
chain: LPSCKEDEYPVGSECCPKCSPGYRVKEACGELTGTVCEPCPPGTYIAHLNGLSKCLQCQMCDPAMGLRASRNCSRTENAVCGCSPGHFCIVQDGDHCAACRAYATSSPGQRVQKGGTESQDTLCQNCPPGTFSPNGTLEECQHQTK
notes: range 1-184; Bivalent chimeric protein made in baculovirus; also called huHVEM:Fc; hu HVEM:Fc; not shown: Fc region of human IgG1
B4: LIGHTt66-FLAG mutant Y173F (ligand, human, UniProt O43557 67-240, looked up, not shown: small tags and cut ends)
chain: EMVTRLPDGPAGSWEQLIQERRSHEVNPAAHLTGANSSLTGSGGPLLWETQLGLAFLRGLSYHDGALVVTKAGYYYIYSKVQLGGVGCPLGLASTITHGLYKRTPRFPEELELLVSQQSPCGRATSSSRVWWDSSFLGGVVHLEAGEKVVVRVLDERLVRLRDGTRSYFGAFMV
notes: range 67-240; Homotrimer, from transiently transfected 293T cells
B5: LIGHTt66-FLAG mutant L120Q (ligand, human, UniProt O43557 67-240, looked up, not shown: small tags and cut ends)
chain: B4 chain with L54Q, F107Y
notes: as for B4
B6: mouse HVEM:Fc (mouse HVEM Met1 to Ser205 fused to the Fc region of human IgG1) (Fc fusion, UniProt Q80WM9 39-205, looked up)
chain: QPSCRQEEFLVGDECCPMCNPGYHVKQVCSEHTGTVCAPCPPQTYTAHANGLSKCLPCGVCDPDMGLLTWQECSSWKDTVCRCIPGYFCENQDGSHCSTCLQHTTCPPGQRVEKRGTHDQDTVCADCLTGTFSLGGTQEECLPWTNCSAFQQEVRRGTNSTDTTCSS
notes: range 1-205; also called mHVEM:Fc; murine HVEM:Fc; not shown: Fc region of human IgG1 (printed IgC1) at the 3' end of the HVEM insert
B7: LIGHTt66-FLAG mutant Q117T (ligand, human, UniProt O43557 67-240, looked up, not shown: small tags and cut ends)
chain: B4 chain with Q51T, F107Y
notes: as for B4
B8: recombinant soluble LTα1β2 (ligand)
chain 1: T1 sequence (looked up)
chain 2: QDQGGLVTETADPGAQAQQGLGFQKLPEEEPETDLSPGLPAAHLIGAPLKGQGLGWETTKEQAFLTSGTQFSDAEGLALPQDGLYYLYCLVGYRGRAPPGGGDPQGRSVTLRSSLYRAGGAYGPGTPELLLEGAETVTPVLDPARRQGYGPLWYTSVGFGGLVQLRRGERVYVNISHPDMVDFARGKTFFGAVMVG
B9: mouse LTβR:Fc (amino acid residues 1 to Met221 of the extracellular domain of mouse LTβR) (Fc fusion, UniProt P50284 31-221, looked up)
chain: QLVPPYRIENQTCWDQDKEYYEPMHDVCCSRCPPGEFVFAVCSRSQDTVCKTCPHNSYNEHWNHLSTCQLCRPCDIVLGFEEVAPCTSDRKAECRCQPGMSCVYLDNECVHCEEERLVLCQPGTEAEVTDEIMDTDVNCVPCKPGHFQNTSSPRARCQPHTRCEIQGLVEAAPGTSYSDTICKNPPEPGAM
notes: range 1-221; also called mLTβR:Fc; murine LTβR:Fc; not shown: Fc part

Experiment [1] addresses T4, p30 (LIGHT), the 30 kDa cell surface HVEM ligand of activated II-23.D7 cells and human T cells (human, UniProt O43557 1-240).
T4 construct: whole, on cells; Endogenous protein, tested on the cell surface in flow cytometry and from detergent extracts in precipitations; also called 30 kDa protein
In words: competition for HVEM:Fc binding to activated II-23.D7 cells, flow cytometry. (In general: A flow cytometer gives signals particle by particle.)

Experiment [2] has as its target T4, p30 (LIGHT), the 30 kDa cell surface …. In words: precipitation from detergent extracts of activated II-23.D7 cells; competition by flow cytometry.
The next experiment has as its target T5, gD-1 (Δ290-299t) (herpes simplex virus type 1, UniProt Q69091 26-331).
T5 construct: also called gD-1 (Δ1290 - 299t)
The experiment can be described thus: binding inhibition, flow cytometry.

The next experiment has as its target T1, LTα homotrimer. The experiment can be described thus: precipitation of 35S-labeled secreted proteins, SDS-PAGE.
The next experiment concerns the target T2, LTαTyr108Phe. The experiment can be described thus: competition for HVEM:Fc binding to II-23.D7 cells, flow cytometry (Figure 3).
Experiment [3] deals with T4, p30 (LIGHT), the 30 kDa cell surface …. In words: flow cytometry, saturation binding to activated II-23.D7 cells.
The target in another experiment is T6, TNF (UniProt P01375 77-233).
T6 construct: also called TNF (17 kDa)
T6 sequence (P01375 77-233 limits assumed): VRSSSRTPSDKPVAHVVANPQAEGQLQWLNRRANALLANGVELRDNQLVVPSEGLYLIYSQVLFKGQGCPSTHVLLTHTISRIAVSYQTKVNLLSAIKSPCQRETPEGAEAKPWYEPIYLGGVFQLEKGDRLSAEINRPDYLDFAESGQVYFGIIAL
In words: precipitation of 35S-labeled secreted proteins of II-23.D7 cells, SDS-PAGE.

Experiment [4] deals with B7. The experiment can be described thus: SPR (BIAcore), receptor:Fc amine-coupled, LIGHT mutant as analyte 100-500 nM.
For experiment [5], the target named is B4. Described as above.
For experiment [6], the target named is B4. The experiment can be described thus: SPR (BIAcore). In general terms: SPR reads the build-up and loss of mass on a sensor chip optically.
Experiment [7] deals with B9. The experiment can be described thus: ELISA, receptor:Fc capture, anti-FLAG detection. (ELISA stands for enzyme-linked immunosorbent assay.)
Experiment [8] addresses LTβR (lymphotoxin β receptor) expressed by cells (human, UniProt P36941 31-435). In words: cell-based or functional assay.
The next experiment deals with T7, human LTβR:Fc (human, UniProt P36941 31-227, limits assumed).
T7 construct: also called huLTβR:Fc; hu LTβR:Fc; not shown: Fc region of human IgG1
T7 sequence (P36941 31-227 limits assumed): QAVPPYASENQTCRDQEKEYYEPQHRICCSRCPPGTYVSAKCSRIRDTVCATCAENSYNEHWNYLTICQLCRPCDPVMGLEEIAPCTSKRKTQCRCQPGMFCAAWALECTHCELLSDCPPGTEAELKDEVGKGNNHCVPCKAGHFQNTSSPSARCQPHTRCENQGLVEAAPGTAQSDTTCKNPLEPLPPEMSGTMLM
In words: SPR (BIAcore), receptor:Fc amine-coupled, LIGHT mutant as analyte 100-500 nM.

Experiment [9] deals with B3. The experiment can be described thus: SPR (BIAcore).
Experiment [10] addresses B5. The experiment can be described thus: ELISA, receptor:Fc capture, anti-FLAG detection.
The target of experiment [11] is B4. In words: ELISA, receptor:Fc capture, anti-FLAG detection.
The target of experiment [12] is T3, LTα1β2 complex (LTβ 33 kDa and LTα …). The experiment can be described thus: precipitation with murine LTβR:Fc, 2D electrophoresis (Figure 4A).

T5 sequence (Q69091 26-314, tags or fused parts left off): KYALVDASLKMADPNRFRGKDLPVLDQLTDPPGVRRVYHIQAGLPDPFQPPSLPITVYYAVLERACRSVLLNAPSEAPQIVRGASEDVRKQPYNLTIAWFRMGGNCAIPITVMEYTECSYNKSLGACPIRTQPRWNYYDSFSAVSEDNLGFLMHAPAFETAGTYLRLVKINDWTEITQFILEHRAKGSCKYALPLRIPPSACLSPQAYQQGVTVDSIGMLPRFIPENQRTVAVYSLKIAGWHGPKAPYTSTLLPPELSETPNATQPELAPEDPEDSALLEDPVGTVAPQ

In the case of B1, in experiment [1], the binding result is listed as “no binding”.

For B2, the binding result (in experiment [2]; in the experiment with gD-1 (Δ290-299t)) was “no binding” throughout.

In the case of B3, the binding result was “binds” with LTα homotrimer, “no binding” in the experiment with LTαTyr108Phe and “no binding” in the experiment with TNF. Further, the EC50 in [3] is about 20 nM. In addition, the Kd in experiment [4] was 0.3 nM; in [5], 173 nM; in experiment [6], 180 nM. Also, the kon in experiment [4] is 20000 M⁻¹ s⁻¹; in [5], 19000 M⁻¹ s⁻¹. In [5], this molecule displayed a koff of 0.0033 s⁻¹.

With B4, the binding result in [7] is “no binding”. Also, in [8], the “fold induction of ICAM expression by NHDF cells (flow cytometry, 20 nM)” value amounted to 2.5 fold. Further, in the experiment with human LTβR:Fc, the affinity, expressed as Kd, was 31 nM; the koff came out at 0.0011 s⁻¹; the kon came out at 37000 M⁻¹ s⁻¹. In [9], the “fold lower affinity than LIGHT t66” value was over 40 fold.

With B5, in experiment [7], the binding result is “binds”.

Consider B6, for which the binding result in [10] is recorded as “binds”; in [11], “no binding”.

In the experiment with human LTβR:Fc, B7 had a Kd of 1.5 nM and a koff of 4.5e-05 s⁻¹.

B8: in experiment [8], the “fold decrease in relative anti-HCMV activity (against LTα and LIGHT)” value is about 10 fold.

As to B9, the binding result in [12] was “binds”.

In general, EC50 refers to the concentration that produces a half-maximal response. The low end stands for an effect from little substance, the high end for a need for much substance. A word on the Kd: it is the constant that tells how readily two partners part at equilibrium. A word on the kon: it is the second-order rate constant of association. A high value points to fast association. A word on the koff: it is the rate constant with which the complex falls apart. A high value points to fast dissociation.
